Test results from patent publication US20060029667A1 (RUTGERS THE STATE UNIVERSITY OF NEW JERSEY, published 2006).
Non-standard residues stand in square brackets, D forms with d. No end group written: not given here. *: point of attachment. Biotin = O=C1N[C@H]2[C@H](CS[C@H]2CCCCC(=O)*)N1

Assays:
[1] = target: high affinity formyl methionine receptor (fMLF receptor) on differentiated HL-60 cells (human) (UniProt P21462); test: cell-based or functional assay
[2] = target: high affinity formyl methionine receptor (fMLF receptor) on differentiated HL-60 cells (human) (UniProt P21462); test: radioligand binding to DMSO-differentiated HL-60 cells
[3] = target: T1, human sodium dependent multivitamin transporter, hSMVT (human, UniProt Q9Y289 1-635); test: cell-based or functional assay
T1 sequence (looked up): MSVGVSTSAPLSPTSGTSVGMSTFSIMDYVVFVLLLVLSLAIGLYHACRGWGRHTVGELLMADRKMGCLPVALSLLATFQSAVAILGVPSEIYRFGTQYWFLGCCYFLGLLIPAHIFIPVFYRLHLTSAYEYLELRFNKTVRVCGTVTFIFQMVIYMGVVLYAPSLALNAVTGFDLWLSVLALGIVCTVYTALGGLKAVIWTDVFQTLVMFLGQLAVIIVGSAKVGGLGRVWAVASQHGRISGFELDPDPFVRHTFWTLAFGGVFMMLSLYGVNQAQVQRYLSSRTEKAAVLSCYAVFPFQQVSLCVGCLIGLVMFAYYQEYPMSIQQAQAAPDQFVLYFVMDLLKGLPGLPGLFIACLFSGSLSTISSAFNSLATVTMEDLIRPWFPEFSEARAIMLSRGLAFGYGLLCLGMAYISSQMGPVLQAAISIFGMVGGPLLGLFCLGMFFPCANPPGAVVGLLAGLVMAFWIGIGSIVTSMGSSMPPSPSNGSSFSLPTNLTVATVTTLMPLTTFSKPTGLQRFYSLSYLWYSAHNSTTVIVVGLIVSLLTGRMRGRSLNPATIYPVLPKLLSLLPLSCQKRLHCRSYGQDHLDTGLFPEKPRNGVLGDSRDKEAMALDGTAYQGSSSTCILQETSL

high affinity formyl methionine receptor (fMLF receptor) on differentiated HL-60 cells (human), sequence (P21462 whole entry): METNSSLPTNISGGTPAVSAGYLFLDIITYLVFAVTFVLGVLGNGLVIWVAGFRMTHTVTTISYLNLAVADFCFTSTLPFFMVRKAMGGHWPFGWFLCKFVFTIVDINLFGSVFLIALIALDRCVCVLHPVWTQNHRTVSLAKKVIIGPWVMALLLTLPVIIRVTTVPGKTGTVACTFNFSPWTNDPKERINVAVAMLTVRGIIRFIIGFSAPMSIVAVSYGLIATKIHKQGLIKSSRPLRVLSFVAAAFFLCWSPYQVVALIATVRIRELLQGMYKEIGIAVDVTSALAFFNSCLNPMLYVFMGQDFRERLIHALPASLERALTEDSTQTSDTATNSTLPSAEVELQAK

**Q.** Which Cell Activation EC50 (calcium release from intracellular stores, differentiated HL-60 cells) [1] does the source give for “N-formyl-methionine-leucine-phenylalanine (fMLF) peptide” here?
**A.** 4.7 nM

**Q.** fML[3H]F (peptide) was tested. Which specific binding as percent of total binding [2] did it give?
**A.** 75%

B1: RI-K(biotin)-Tat9 (peptide)
peptide: [dK](Biotin)[dR][dR][dR][dQ][dR][dR][dK][dK][dR]-NH2
modifications: not fully specified (N-terminus)
**Q.** Which “uptake in CHO/hSMVT cells relative to RI-K-Tat9 (at 10 µM)” value [3] does the source give for B1 here?
**A.** ~500 fold
